{"source": "patent US20150141617A1", "about": "“PRODUCTION AND PURIFICATION OF ACTIVE EUKARYOTIC FORMYLGLYCINEGENERATING ENZYME (FGE) VARIANTS” (Universität Bielefeld, priority 2013, published 2015)", "molecules": {"B1": {"name": "dimeric FGE: disulfide-bridged dimeric form of recombinant fl-FGE-R69A/R72A separated by size exclusion chromatography (protein)", "chain": "ADEFSQEAGTGAGAGSLAGSCGCGTPQRPGAHGSSAAAHAYSAEANAPGPVPGERQLAHSKMVPIPAGVFTMGTDDPQIKQDGEAPARRVTIDAFYMDAYEVSNTEFEKFVNSTGYLTEAEKFGDSFVFEGMLSEQVKTNIQQAVAAAPWWLPVKGANWRHPEGPDSTILHRPDHPVLHVSWNDAVAYCTWAGKRLPTEAEWEYSCRGGLHNRLFPWGNKLQPKGQHYANIWQGEFPVTNTGEDGFQGTAPVDAFPPNGYGLYNIVGNAWEWTSDWWTVHHSVEETLNPKGPPSGKDRVKKGGSYMCHRSYCYRYRCAARSQNTPDSSASNLGFRCAADRLPTMDSGRGSHHHHHHH"}, "B2": {"name": "fl-FGE-R69A/R72A: human full length FGE variant, Arginine-69 and Arginine-72 converted to Alanine, non-cleavable furin motif, SEQ ID NO:4 (protein)", "chain": "B1 chain", "modifications": "double fl FGE variant R69A / R72A"}, "B3": {"name": "monomeric FGE (protein)", "chain": "B1 chain"}, "B4": {"name": "Δ72-FGE (SEQ ID NO: 6), produced in High Five insect cells (protein)", "chain": "ADLGSSMEFEANAPGPVPGERQLAHSKMVPIPAGVFTMGTDDPQIKQDGEAPARRVTIDAFYMDAYEVSNTEFEKFVNSTGYLTEAEKFGDSFVFEGMLSEQVKTNIQQAVAAAPWWLPVKGANWRHPEGPDSTILHRPDHPVLHVSWNDAVAYCTWAGKRLPTEAEWEYSCRGGLHNRLFPWGNKLQPKGQHYANIWQGEFPVTNTGEDGFQGTAPVDAFPPNGYGLYNIVGNAWEWTSDWWTVHHSVEETLNPKGPPSGKDRVKKGGSYMCHRSYCYRYRCAARSQNTPDSSASNLGFRCAADRLPTMDSGRGSHHHHHHH"}, "B5": {"name": "Δ72-FGE: human FGE that lacks the N-terminal domain (amino acid residues 1-72), SEQ ID NO:6 (protein)", "chain": "B4 chain", "modifications": "cleaved FGE in position 72 , inacitve FGE"}}, "key": {"[1]": {"biological_target": "FGE-HA (human formylglycine generating enzyme, wild type, C-terminal HA tag, expressed from pBI-FGE-HA in mammalian cells) (human) (UniProt Q8NBK3)", "test": "cell-based or functional assay"}, "[2]": {"system": "23-aa long substrate peptide Ac-MTDFYVPVSLCTPSRAALLTGRS-NH2", "test": "In vitro FGE activity assay (MALDI-ToF MS) with purified recombinant FGE from insect cells", "format": "biochemical", "conditions": "for DTT concentration of maximal activity: 0-15 mM DTT, pH 9.3, 15 min 37° C.; for pH of maximal activity: MTGC buffer pH 6.5-11.0; for FGly generation in substrate peptide in presence of DTT: pH 9.3, 37° C.; for dependence of activity on reducing agent (DTT or GSH): in vitro; for specific activity: purified from Baculovirus expression system (Example 7)", "procedure": "a) fl-FGE-R69A/R72A (SEQ ID NO: 4) is active and e.g. generates FGly within a 23-aa long substrate peptide 16 pmol of the 23 amino acid (aa) long peptide Ac-[…]-NH2 (SEQ ID NO:46) were incubated with 12 ng of fl-FGE-R69A/R72A for 20 min at 37° C. under assay conditions (50 mM Tris, 67 mM NaCl, 15 μM CaCl2, 0.33 mg/mL BSA, 2 mM DTT, pH 9.3 in a total volume of 30 μL).\nThe reaction was stopped by adding 3 μL of 20% trifluoroacetic-acid (TFA), immediately followed by vortexing and by a short centrifugation at 10000×g. The peptide was purified and concentrated by C18-Zip-Tip treatment. Therefore the Zip-Tip was prepared by pipetting three times 10 μL of 50% acetonitrile, 0.05% TFA in water and three times 10 μL 0.1% TFA in water. The 33 μL sample was pipetted 10 times up and down. The bound peptide was washed by pipetting 10 times 10 μL 0.1% TFA in water and was eluted in 10 μL 50% acetonitrile, 0.05% TFA in water by pipetting 10 times up and down. For MS-analysis the following matrix was prepared freshly: 40 μL of a saturated α-cyano-hydroxycinnamic acid solution in aceton were added to 10 μL of a solution containing 10 mg/mL nitrocellulose in 50% Aceton/50% Isopropanol (v/v). 0.5 μL of the matrix were spotted onto a polished steel target and 1 μL of the purified sample was added. The dried sample spot was analyzed by MALDI-ToF mass spectrometry using the Ultra flextreme spectrometer from Bruker Daltronics. The cysteine containing substrate peptide (2526.28 [M+H]^+) and the FGly containing product peptide (2508.29 [M+H]^+) were detected.\nb) fl-FGE-R69A/R72A (SEQ ID NO:4) is able to generate FGly by using GSH as reductant:10 times stock solutions of DTT and GSH were prepared in 20 mM Tris pH 9.3. For the reaction, 13 ng of Baculo-fl-FGE were incubated with 16 pmol of the 23 aa-long substrate peptide, 2 mM DTT or 5 mM reduced glutathione for 15 min at 37° C. under assay conditions (50 mM Tris, 67 mM NaCl, 15 μM CaCl2, 0.33 mg/mL BSA, pH 9.3 in a total volume of 30 μL). The reactions were stopped and prepared further for MS-analysis as described above. The ratio of the intensity of the FGly-product peptide divided by the sum of the substrate and product intensities multiplied with 100 yields %-turnover of the substrate peptide. Based on that, specific activities were calculated.\nThe dependence of FGly-generating activity of recombinant fl-FGE-R69A/R72A on the reducing agents DTT and GSH were analyzed at pH 9.3 under standard assay conditions (FGE and substrate peptide were incubated at 37° C. in 50 mM Tris/HCl, 67 mM NaCl, and 0.33 mg/ml BSA in 30 μl volume. The reaction was started by addition of substrate) using a MALDI-mass spectrometry based in vitro activity assay (Ennemann et al., 2013 and FIG. 7).\nThe pH-dependence for in vitro activity of recombinant fl-FGE-R69A/R72A and Δ72-FGE-wt was analyzed under optimal DTT and GSH concentrations. Accordingly, the activity of recombinant fl-FGE-R69A/R72A in the presence of 2 mM DTT, under standard assay conditions, was measured in buffers of pH ranging from pH 6.5 to 11.0 (FIG. 19A). […] In the presence of 5 mM GSH, the maximal activity was also observed at pH 9.3 and a very similar activity profile ranging from pH 7.5 to 11 (FIG. 19B). […] In summary, fl-FGE-R69A/R72A requires less alkaline conditions for optimum activity than Δ72-FGE-wt."}, "[3]": {"test": "Stability of purified recombinant FGE upon storage (SDS-PAGE, Coomassie staining or western blotting)", "format": "physicochemical", "procedure": "Purified enzymes are preferably stored frozen at −20° C. or −80° C., but it is known that the freeze-thaw cycle can lead to a decrease in the stability of proteins and/or accompanied loss of enzymatic activity. To minimize this effect, it is common to add stabilizing agents to preserve the stability and functionality of proteins during long-term storage. Analyses of conditions that affect the stability of purified recombinant fl-FGE-R69A/R72A and Δ72-FGE-wt were performed. The stability was assessed by analyzing the purified protein by SDS-PAGE and subsequently visualized by Coomassie staining or western blotting using FGE anti-serum as described above.\nGeneration of truncated FGE was increasingly detected upon removing the imidazole by size exclusion chromatography (Panel SEC, FIG. 17A). To gain further insights, aliquots of the purified fraction from size exclusion chromatography were incubated at 4° C. for either 3.5 h or 20 h in the presence of various additives like NaCl, imidazole, arginine and glycerol and later assessed by western blot using FGE anti-serum."}, "[4]": {"biological_target": "T1, 23 amino acid substrate peptide Ac-MTDFYVPVSLCTPSRAALLTGRS-NH2 (SEQ ID NO: 46)", "T1 chain": "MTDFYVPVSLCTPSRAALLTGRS"}, "[5]": {"system": "cysteine-containing substrate peptide", "test": "In vitro FGE activity assay with conditioned media from CHO-FD11 cells", "format": "biochemical", "conditions": "5 mM GSH vs 2 mM DTT, pH 9.3, conditioned media", "procedure": "FGE activity was assayed using conditioned media that contained either secreted fl-FGE (obtained from CHO-FD FGE-His6 cells) or Δ72-FGE (obtained from CHO-FD Tet-On cells after transient co-transfection with pBI-FGE-HA and pIRES-Furin constructs). After expression for 48 h at 1% or 2.5% FCS containing DMEM, the medium was collected and centrifuged at 500×g for 5 min. The supernatant was analyzed by SDS-PAGE and western blotting and aliquots were directly used for activity testing.\nThe activity assay was performed in triplicates with three sets of conditioned media at pH 9.3 under standard conditions as described earlier (4) with some modifications; no BSA was added to the reaction mixture and 2 mM DTT or 5 mM GSH were used as reducing agents.\nThe inventors have recently shown that the N-terminal part of FGE (residues 34-68) is essential to activate sulfatases in vivo (12). By contrast, the N-terminal extension was not required for in vitro FGly-generating activity of purified secreted Δ72-FGE. […] To assess the physiological consequence of the N-terminal truncation by furin on the function of FGE, the inventors analyzed the FGly-generating activity of the processed and the unprocessed forms of secreted FGE in the presence of glutathione (GSH), a physiological reductant, or DTT serving as a control. […]"}}, "data": [{"molecule": "human furin (Gene ID 5045), expressed from a pIRES construct in CHO-FD11 cells (from UniProt P09958 108-794)", "values": [{"measurement": "share of Δ72-FGE in secretions of CHO-FD11 Tet-On cells co-expressing FGE and the PC (western blot)", "setting": "[1]", "result": 100, "unit": "%"}]}, {"molecule": "B1", "values": [{"measurement": "DTT concentration of maximal activity", "setting": "[2]", "result": "0.1 to 1", "unit": "mM"}, {"measurement": "DTT concentration for optimal activity under in vitro conditions", "setting": "[2]; pH 9.3", "result": "0.1 to 2", "unit": "mM"}, {"measurement": "stability of dimeric vs monomeric form", "setting": "[3]", "result": "more stable than monomeric fl FGE forms"}]}, {"molecule": "B2", "values": [{"measurement": "specific activity in presence of the control reductant DTT", "setting": "[2]; 2 mM DTT, 15 min 37° C., pH 9.3, 4 measurements", "result": "24.1±1.7", "unit": "mU/mg"}, {"measurement": "pH of maximal activity", "setting": "[2]; 2 mM DTT", "result": 9.3}, {"measurement": "FGly generation in substrate peptide in presence of DTT", "setting": "[2]; 2 mM DTT", "result": "is active"}, {"measurement": "pH of maximal activity", "setting": "[2]; 5 mM GSH", "result": 9.3}, {"measurement": "specific activity in presence of GSH", "setting": "[2]; 5 mM reduced glutathione, 15 min 37° C., pH 9.3, 4 measurements", "result": "15.6±1.3", "unit": "mU/mg"}, {"measurement": "FGly generation using GSH as reductant", "setting": "[2]; 5 mM reduced glutathione, pH 9.3", "result": "active in presence of GSH"}, {"measurement": "dependence of activity on reducing agent (DTT or GSH)", "setting": "[2]; pH 9.3", "result": "fully functional in the presence of either DTT or glutathione (GSH)"}, {"measurement": "activity in the absence of externally added reducing agents", "setting": "[2]; pH 9.3", "result": "very low activity"}, {"measurement": "specific activity", "setting": "[2]", "result": 33, "unit": "mU/mg"}, {"measurement": "stability with added imidazole", "setting": "[3]; 250 mM imidazole, one freeze-thaw cycle, two weeks at −80° C.", "result": "more stable"}, {"measurement": "truncated fragment (~37 kDa) of the total protein after thawing", "setting": "[3]; Ni-NTA fractions containing 250-500 mM imidazole, long-term storage −80° C.", "result": "less than 5%"}, {"measurement": "stability after long-term storage", "setting": "[3]; Ni-NTA fractions containing 250-500 mM imidazole, −80° C.", "result": "highly stable"}, {"measurement": "truncation on prolonged incubation", "setting": "[3]; SEC fraction (imidazole removed), 4° C., 3.5 h or 20 h", "result": "led to generation of truncated fragments"}, {"measurement": "truncation on incubation with additive", "setting": "[3]; SEC fraction, 4° C., 250 mM imidazole or 850 mM NaCl", "result": "prevented further increase of FGE truncation"}]}, {"molecule": "B3", "values": [{"measurement": "DTT concentration of maximal activity", "setting": "[2]", "result": 2, "unit": "mM"}, {"measurement": "DTT concentration for optimal activity under in vitro conditions", "setting": "[2]; pH 9.3", "result": "1 to 10", "unit": "mM"}]}, {"molecule": "B4", "values": [{"measurement": "conversion of the Cys substrate peptide to the FGly product peptide (MALDI-ToF MS), DTT as reductant", "setting": "[4]", "result": "The Δ72-FGE (SEQ ID NO: 6) variant also converts the cysteine-containing substrate peptide to the FGly-containing product peptide in presence of the reductant DTT"}]}, {"molecule": "B5", "values": [{"measurement": "pH of maximal activity", "setting": "[2]; 2 mM DTT", "result": "~10"}, {"measurement": "FGly generation in substrate peptide in presence of DTT", "setting": "[2]; 2 mM DTT", "result": "converts the cysteine-containing substrate peptide to the FGly-containing product peptide"}, {"measurement": "dependence of activity on reducing agent (DTT or GSH)", "setting": "[2]; pH 9.3", "result": "strictly relies on DTT"}, {"measurement": "specific activity", "setting": "[2]", "result": "70-90 mU/mg"}, {"measurement": "FGly-generating activity (% substrate turnover) in the presence of GSH normalized to that of DTT (100%)", "setting": "[5]", "result": "barely active in the presence of GSH"}, {"measurement": "molecular integrity after storage", "setting": "[3]; thawing from −80° C. and short-term storage at 4° C.", "result": "did not lead to any change in the molecular integrity"}]}]}
